# Data reported in patent US20070105771A1 (Y S THERAPEUTICS, published 2007).
# T1: human CD26-derived 13 mer peptide 113 (human)
# T1 peptide: NTDSLSSVTNATS
# T2: human CD26-derived 13 mer peptide 66 (human)
# T2 peptide: PNLPSYRITWTGK
# T3: human CD26-derived 13 mer peptide 80 (human)
# T3 peptide: EVFSAYSALWWSP
# T4: human CD26-derived 13 mer peptide 104 (human)
# T4 peptide: VPYPKAGAVNPTV
# T5: human CD26-derived 13 mer peptide 87 (human)
# T5 peptide: GTFLAYAQFNDTE
# T6: human CD26-derived 13 mer peptide 34 (human)
# T6 peptide: ILLEYNYVKQWRH
# T7: human CD26-derived 13 mer peptide 116 (human)
# T7 peptide: SVTNATSIQITAP
# T8: human CD26-derived 13 mer peptide 50 (human)
# T8 peptide: ERIPNNTQWVTWS
# T9: human CD26-derived 13 mer peptide 130 (human)
# T9 peptide: ATQERISLQWLRR
# T10: human CD26-derived 13 mer peptide 55 (human)
# T10 peptide: TWSPVGHKLAYVW
# T11: human CD26-derived 13 mer peptide 73 (human)
# T11 peptide: DIIYNGITDWVYE
# T12: human CD26-derived 13 mer peptide 46 (human)
# T12 construct: also called NKRQL1TEERIPN
# T12 peptide: NKRQLITEERIPN
# T13: human CD26-derived 13 mer peptide 132 (human)
# T13 peptide: RISLQWLRRIQNY
# T14: human CD26-derived 13 mer peptide 99 (human)
# T14 peptide: ESLQYPKTVRVPY
# T15: human CD26-derived 13 mer peptide 11 (human)
# T15 peptide: YLYKQENNILVFN
# T16: human CD26-derived 13 mer peptide 98 (human)
# T16 peptide: SDESLQYPKTVRV
# T17: human CD26-derived 13 mer peptide 6 (human)
# T17 peptide: YSLRWISDHEYLY
# T18: human CD26-derived 13 mer peptide 124 (human)
# T18 peptide: LIGDHYLCDVTWA
# T19: human CD26-derived 13 mer peptide 92 (human)
# T19 peptide: DTEVPLIEYSFYS
# T20: human CD26-derived 13 mer peptide 12 (human)
# T20 peptide: YKQENNILVFNAE
# T21: human CD26-derived 13 mer peptide 93 (human)
# T21 peptide: EVPLIEYSFYSDE
# T22: human CD26-derived 13 mer peptide 85 (human)
# T22 peptide: WSPNGTFLAYAQF
# T23: human CD26-derived 13 mer peptide 54 (human)
# T23 peptide: WVTWSPVGHKLAY
# T24: human CD26-derived 13 mer peptide 115 (human)
# T24 peptide: LSSVTNATSIQIT
# T25: human CD26-derived 13 mer peptide 26 (human)
# T25 peptide: FGHSINDYSISPD
# T26: human CD26-derived 13 mer peptide 127 (human)
# T26 peptide: LCDVTWATQERIS
# T27: human CD26-derived 13 mer peptide 58 (human)
# T27 peptide: HKLAYVWNNDIYV
# T28: human CD26-derived 13 mer peptide 8 (human)
# T28 peptide: WISDHEYLYKQEN
# T29: human CD26-derived 13 mer peptide 86 (human)
# T29 peptide: PNGTFLAYAQFND
# T30: human CD26-derived 13 mer peptide 38 (human)
# T30 peptide: KQWRHSYTASYDI
# T31: human CD26-derived 13 mer peptide 3 (human)
# T31 peptide: TYRLKLYSLRWIS
# T32: human CD26-derived 13 mer peptide 107 (human)
# T32 peptide: GAVNPTVKFFVVN
# T33: human CD26-derived 13 mer peptide 67 (human)
# T33 construct: also called LPSYRITWTGKED
# T33 peptide: LPSYRITWTGKED
# T34: human CD26-derived 13 mer peptide 122 (human)
# T34 peptide: PASMLIGDHYLCD
# T35: human CD26-derived 13 mer peptide 76 (human)
# T35 peptide: ITDWVYEEEVFSA
# T36: human CD26-derived 13 mer peptide 71 (human)
# T36 peptide: TGKEDIIYNGITD
# T37: human CD26-derived 13 mer peptide 44 (human)
# T37 peptide: IYDLNKRQLITEE
# T38: human CD26-derived 13 mer peptide 10 (human)
# T38 peptide: HEYLYKQENNILV
# T39: human CD26-derived 13 mer peptide 57 (human)
# T39 peptide: VGHKLAYVWNNDI
# T40: human CD26-derived 13 mer peptide 123 (human)
# T40 peptide: SMLIGDHYLCDVT
# T41: human CD26-derived 13 mer peptide 25 (human)
# T41 peptide: DEFGHSINDYSIS
# T42: human CD26-derived 13 mer peptide 96 (human)
# T42 peptide: YSFYSDESLQYPK
# B1: rhuMAb 411 (antibody, human IgG1, kappa, V domains shown)
# VH: EVQLVESGAGVKQPGGTLRLTCTASGFSLTTYGVHWVRQAPGKGLEWVGVIWGDGRTDYDAAFMSRVTISKDTSKSTVYLQMNSLRAEDTAVYYCMRNRHDWFDYWGQGTTVTVSS
# VL: DILLTQSPSSLSATPGERATITCRASQGIRNNLNWYQQKPGQAPRLLIYYSSNLQSGVPSRFSGSGSGTDFTLTISRLQPEDVAAYYCQQSIKLPFTFGSGTKVEIKR
# notes: also called X411
# Legend:
# Assay in all cases: peptide microarray
# [1] = target: T1, human CD26-derived 13 mer peptide 113
# Procedure: (§1) The overnight incubation was followed by three washings with each of PBS buffer pH 7.5 and water. The microarrays were then scanned using ArrayWorx-Microarray Scanner.
# (§2) The SPOT recognition software package ArrayPro was used for data analysis. The mean of signal intensities from 3 identical subarrays on each microarray image was used for data evaluation.
# [2] = target: T2, human CD26-derived 13 mer peptide 66
# Procedure: as §1, §2
# [3] = target: T3, human CD26-derived 13 mer peptide 80
# Procedure: as §1, §2
# [4] = target: T4, human CD26-derived 13 mer peptide 104
# Procedure: as §1, §2
# [5] = target: T5, human CD26-derived 13 mer peptide 87
# Procedure: as §1, §2
# [6] = target: T6, human CD26-derived 13 mer peptide 34
# Procedure: as §1, §2
# [7] = target: T7, human CD26-derived 13 mer peptide 116
# Procedure: as §1, §2
# [8] = target: T8, human CD26-derived 13 mer peptide 50
# Procedure: as §1, §2
# [9] = target: T9, human CD26-derived 13 mer peptide 130
# Procedure: as §1, §2
# [10] = target: T10, human CD26-derived 13 mer peptide 55
# Procedure: as §1, §2
# [11] = target: T11, human CD26-derived 13 mer peptide 73
# Procedure: as §1, §2
# [12] = target: T12, human CD26-derived 13 mer peptide 46
# Procedure: as §1, §2
# [13] = target: T13, human CD26-derived 13 mer peptide 132
# Procedure: as §1, §2
# [14] = target: T14, human CD26-derived 13 mer peptide 99
# Procedure: as §1, §2
# [15] = target: T15, human CD26-derived 13 mer peptide 11
# Procedure: as §1, §2
# [16] = target: T16, human CD26-derived 13 mer peptide 98
# Procedure: as §1, §2
# [17] = target: T17, human CD26-derived 13 mer peptide 6
# Procedure: as §1, §2
# [18] = target: T18, human CD26-derived 13 mer peptide 124
# Procedure: as §1, §2
# [19] = target: T19, human CD26-derived 13 mer peptide 92
# Procedure: as §1, §2
# [20] = target: T20, human CD26-derived 13 mer peptide 12
# Procedure: as §1, §2
# [21] = target: T21, human CD26-derived 13 mer peptide 93
# Procedure: as §1, §2
# [22] = target: T22, human CD26-derived 13 mer peptide 85
# Procedure: as §1, §2
# [23] = target: T23, human CD26-derived 13 mer peptide 54
# Procedure: as §1, §2
# [24] = target: T24, human CD26-derived 13 mer peptide 115
# Procedure: as §1, §2
# [25] = target: T25, human CD26-derived 13 mer peptide 26
# Procedure: as §1, §2
# [26] = target: T26, human CD26-derived 13 mer peptide 127
# Procedure: as §1, §2
# [27] = target: T27, human CD26-derived 13 mer peptide 58
# Procedure: as §1, §2
# [28] = target: T28, human CD26-derived 13 mer peptide 8
# Procedure: as §1, §2
# [29] = target: T29, human CD26-derived 13 mer peptide 86
# Procedure: as §1, §2
# [30] = target: T30, human CD26-derived 13 mer peptide 38
# Procedure: as §1, §2
# [31] = target: T31, human CD26-derived 13 mer peptide 3
# Procedure: as §1, §2
# [32] = target: T32, human CD26-derived 13 mer peptide 107
# Procedure: as §1, §2
# [33] = target: T33, human CD26-derived 13 mer peptide 67
# Procedure: as §1, §2
# [34] = target: T34, human CD26-derived 13 mer peptide 122
# Procedure: as §1, §2
# [35] = target: T35, human CD26-derived 13 mer peptide 76
# Procedure: as §1, §2
# [36] = target: T36, human CD26-derived 13 mer peptide 71
# Procedure: as §1, §2
# [37] = target: T37, human CD26-derived 13 mer peptide 44
# Procedure: as §1, §2
# [38] = target: T38, human CD26-derived 13 mer peptide 10
# Procedure: as §1, §2
# [39] = target: T39, human CD26-derived 13 mer peptide 57
# Procedure: as §1, §2
# [40] = target: T40, human CD26-derived 13 mer peptide 123
# Procedure: as §1, §2
# [41] = target: T41, human CD26-derived 13 mer peptide 25
# Procedure: as §1, §2
# [42] = target: T42, human CD26-derived 13 mer peptide 96
# Procedure: as §1, §2
binder,measurement,setting,value
B1,Mean Signal Value,[1],0.0288
same,Mean Signal Value,[2],0.111
same,Mean Signal Value,[3],17.7
same,Mean Signal Value,[4],0.00481
same,Mean Signal Value,[5],0.0288
same,Mean Signal Value,[6],15.7
same,Mean Signal Value,[7],0.0385
same,Mean Signal Value,[8],34.6
same,Mean Signal Value,[9],4.3
same,Mean Signal Value,[10],124
same,Mean Signal Value,[11],33.6
same,Mean Signal Value,[12],0
same,Mean Signal Value,[13],113
same,Mean Signal Value,[14],0.0865
same,Mean Signal Value,[15],5.78
same,Mean Signal Value,[16],0.00481
same,Mean Signal Value,[17],97.5
same,Mean Signal Value,[18],12.7
same,Mean Signal Value,[19],11.9
same,Mean Signal Value,[20],0
same,Mean Signal Value,[21],0.269
same,Mean Signal Value,[22],1.02
same,Mean Signal Value,[23],13
same,Mean Signal Value,[24],0.0673
same,Mean Signal Value,[25],0.0337
same,Mean Signal Value,[26],0.00962
same,Mean Signal Value,[27],33.8
same,Mean Signal Value,[28],0.736
same,Mean Signal Value,[29],0.524
same,Mean Signal Value,[30],4.77
same,Mean Signal Value,[31],0.726
same,Mean Signal Value,[32],10.6
same,Mean Signal Value,[33],0.00962
same,Mean Signal Value,[34],0.308
same,Mean Signal Value,[35],0.0337
same,Mean Signal Value,[36],0
same,Mean Signal Value,[37],0
same,Mean Signal Value,[38],0.0192
same,Mean Signal Value,[39],9.67
same,Mean Signal Value,[40],0.438
same,Mean Signal Value,[41],0
same,Mean Signal Value,[42],0.0144
